T1: Peptide 1 (amino acid position 1-28 of the human CCR6) (human, biotinylated)
T1 construct: also called first 28 AA
T1 peptide: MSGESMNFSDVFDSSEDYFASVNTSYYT

T2: Peptide 2 (amino acid position 18-46 of the human CCR6) (human, biotinylated)
T2 construct: also called AA 18 to 46
T2 peptide: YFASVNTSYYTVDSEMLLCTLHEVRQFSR

T3: human CCR6 (human, UniProt P51684 1-374)
T3 construct: also called hCCR6; CD196
T3 sequence: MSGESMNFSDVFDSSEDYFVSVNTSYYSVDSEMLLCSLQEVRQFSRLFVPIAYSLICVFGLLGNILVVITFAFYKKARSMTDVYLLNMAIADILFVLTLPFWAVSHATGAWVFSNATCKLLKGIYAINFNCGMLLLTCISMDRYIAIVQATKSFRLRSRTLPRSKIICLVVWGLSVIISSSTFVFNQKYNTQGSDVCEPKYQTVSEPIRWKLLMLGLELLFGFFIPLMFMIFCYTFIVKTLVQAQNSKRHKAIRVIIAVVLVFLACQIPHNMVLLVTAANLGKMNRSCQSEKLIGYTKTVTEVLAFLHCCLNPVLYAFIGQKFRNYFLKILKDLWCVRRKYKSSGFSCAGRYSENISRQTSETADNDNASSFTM

T4: hCXCR1 (human, UniProt P25024 1-350)
T4 construct: whole, on cells; also called hCXCRI; human CXCR1 transfected L1.2 cells
T4 sequence (looked up): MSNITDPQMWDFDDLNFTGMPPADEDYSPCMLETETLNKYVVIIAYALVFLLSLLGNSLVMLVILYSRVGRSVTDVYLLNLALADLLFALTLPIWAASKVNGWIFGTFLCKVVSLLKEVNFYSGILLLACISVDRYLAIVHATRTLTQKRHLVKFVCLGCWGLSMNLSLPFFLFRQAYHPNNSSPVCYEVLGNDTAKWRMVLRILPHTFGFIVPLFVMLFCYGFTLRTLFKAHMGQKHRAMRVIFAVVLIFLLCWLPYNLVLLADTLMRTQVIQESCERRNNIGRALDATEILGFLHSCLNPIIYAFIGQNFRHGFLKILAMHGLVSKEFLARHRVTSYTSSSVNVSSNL

T5: hCXCR2 (human, UniProt P25025 1-360)
T5 construct: whole, on cells; also called human CXCR2 transfected L1.2 cells
T5 sequence (looked up): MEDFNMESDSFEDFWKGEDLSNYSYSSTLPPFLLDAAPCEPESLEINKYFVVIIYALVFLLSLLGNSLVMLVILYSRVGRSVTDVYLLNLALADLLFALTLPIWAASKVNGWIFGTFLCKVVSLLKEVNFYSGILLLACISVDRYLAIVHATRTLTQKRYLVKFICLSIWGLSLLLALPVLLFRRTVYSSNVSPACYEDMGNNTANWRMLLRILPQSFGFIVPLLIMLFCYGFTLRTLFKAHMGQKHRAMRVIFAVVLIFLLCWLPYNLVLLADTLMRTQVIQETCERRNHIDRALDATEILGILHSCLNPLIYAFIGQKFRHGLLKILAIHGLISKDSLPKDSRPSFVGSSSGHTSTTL

T6: hCXCR3 (human, UniProt P49682 1-368)
T6 construct: whole, on cells; also called human CXCR3 transfected L1.2 cells
T6 sequence (looked up): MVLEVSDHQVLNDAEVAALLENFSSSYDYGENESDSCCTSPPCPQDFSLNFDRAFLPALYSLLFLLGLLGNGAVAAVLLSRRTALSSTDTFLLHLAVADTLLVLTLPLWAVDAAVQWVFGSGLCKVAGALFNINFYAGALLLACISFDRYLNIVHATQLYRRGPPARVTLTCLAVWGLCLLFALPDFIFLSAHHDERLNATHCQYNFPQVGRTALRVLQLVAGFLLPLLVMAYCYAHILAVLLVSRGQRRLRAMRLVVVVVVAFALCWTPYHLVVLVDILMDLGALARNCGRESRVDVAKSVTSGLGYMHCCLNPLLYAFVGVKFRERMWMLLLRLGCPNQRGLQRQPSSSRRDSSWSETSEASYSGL

B1: AB7 (antibody, V domains shown)
VH: QDQLQQSGVALARPGASVKLSCKASEYTFKSFGLGWVKQRPGQGLEWIGEIYPRSGNTYYNEKVKGKVRLTADKSSNSVYMEFRSLTSEDSAVYFCARSPYDGYFDYWGQGTTLTVS
VL: DVVMTHSPLSLPVSLGDQASISCRSSQSLLHINGNTYLHWYLQKPGQSPKLLIYRVSNRLSGVPDRFSGSGSGTDFTLKISRVEAEDLGVYFCSQSTHVPRTFGGGTKLEIKR
notes: Mouse hybridoma antibody; also called clone AB7
B2: AB3 (antibody, V domains shown)
VH: EVNLVESGGGLVQPGGSLKLSCAASGFTFSDYYLYWVRQTPEKRLEWVTYITNGGGRTYYSDTVRGRFTISRDNAKNTLYLQMSRLKSEDTAMYYCASPPLGGAWFGYWGQGTLVTVS
VL: DVLMTQTPLSLPVSLGDQASISCRSSQSIVHSNGNTYLEWYLQKPGQSPKLLIYKVSKRFSGVPDRFSGSGSGTDFTLKISRVEAEDLGVYYCFQGSHVPLTFGAGTKLELKR
notes: Mouse hybridoma antibody, isotype IgG1; also called AB3-N21
B3: mouse AB6 mAb (antibody, V domains shown)
VH: EVKLVESGGGLVQPGGSLKLSCAASGFPFSDYYLYWVRQTPEKRLEWVAYITNGVGRTYYSDSVKGRFTISRDNAKNTLYLQMSRLKSEDTSMYYCTSPPLGGAWFAYWGQGTLVTVS
VL: DVLMTQTPLSLPVSLGDQASISCRSSQSIVHSNGNTYLEWYLQKPGQSPKLLIYKVSKRFSGVPDRFSGSGSGTDFTLKISRVEAEDLGVYYCFQGSHVPLTFGAGTKLELKR
notes: Mouse hybridoma antibody, isotype IgG2b; also called mAB6; AB6-K5
B4: AB11 (antibody, V domains shown)
VH: EVNLVESGGGLVQPGGSLILSCEASGFSFSDYYMYWVRQTPEKRLEWVTYITNGGGRTYYSDAIRGRFTISRDNARNTLYLQMSRLKSEDTAMYYCTSPPLGGAWFGYWGQGTLVTVS
VL: DVSMTQTPLSLPVSLGDQASISCRSSQSLVHSNGNTYLEWYLQKPGQSPKLLIYKVSKRFSGVPDRFSGSGSGTDFTLKISRVEAEDLGVYYCFQGSHVPLTFGAGTKLELKR
notes: Mouse hybridoma antibody, isotype IgG1; also called AB11-M9
B5: AB5 (antibody, V domains shown)
VH: EVNLVESGGGLVQPGGSLKLSCEASGFTFSDYYMYWVRQTPEKRLEWVTYITNGAGRTYYSDTVRGRFTISRDNAKNTLYLQMSRLKSEDTAMYYCASPPLGGAWFAYWGQGTLVTVS
VL: DVSMTQTPLSLPVSLGDQASISCRSSQSLVHSNGNTYLEWYLQKPGQSPKLLIYKVSKRFSGVPDRFSGSGSGTDFTLKISRVEAEDLGVYYCFQGSHVPLTFGAGTKLELKR
notes: Mouse hybridoma antibody, isotype IgG1; also called AB5-M19
B6: AB4 (antibody, V domains shown)
VH: EVNLVESGGGLVQPGGSLKLSCAASGFTFSDYYMYWVRQTPEKRLEWVTYITNGGGRTYYSDTVRGRFTISRDNAKNTLYLQMSRLKSEDTAMYYCASPPLGGAWFGYWGQGTLVTVS
VL: DVLMTQTPLSLPVSLGDQASISCRSSQSLVHSNGNTYLEWYLQKPGQSPKLLIYKVSKRFSGVPDRFSGSGSGTDFTLKISRVGAEDLGVYYCFQGSHVPLTFGAGTKLELKR
notes: Mouse hybridoma antibody, isotype IgG2b; also called AB4-K15
B7: AB2 (antibody, V domains shown)
VH: EVNLVESGGGLVQPGGSLKLSCEASGFSFSDYYMYWVRQTPEKRLEWVTYITNGGGRTYYSDTIRGRFTISRDNARNTLYLQMSRLKSEDTAMYYCTSPPLGGAWFGYWGQGTLVTVS
VL: DVSMTQTPLSLPVSLGDQASISCRSSQSLVHSNGNTYLEWYLQKPGQSPKLLIYKVSKRFSGVPDRFSGSGSGTDFTLKISRVEAEDLGVYYCFQGSHVPLTFGAGTKLELKR
notes: Mouse hybridoma antibody, isotype IgG1; also called AB2-O17

Columns and labels:
[1] = molecular target: T1, Peptide 1 (amino acid position 1-28 of …); assay: ELISA, biotinylated peptide on a streptavidin-coated plate
Method: (§1) Two overlapping biotinylated peptides spanning the entire N-terminal region of human CCR6 were then synthesized and used in more defined anti-CCR6 mAb epitope mapping studies. Peptide 1 ([…], SEQ ID NO: 2) corresponds to amino acid position 1-28 of the human CCR6 and Peptide 2 ([…], SEQ ID NO: 101) corresponds to amino acid position 18-46 of the human CCR6. Briefly, multiwell plates were coated with streptavidin and washed before the biotinylated peptides were added to separate wells and incubated to facilitate binding of the peptides to the plate. Different anti-human CCR6 antibodies were then tested by adding the respective antibodies to the wells of the plate and incubating the plate. An isotype control and buffer only were included as negative controls. Following washing, appropriate conjugated antibodies were added and the plates were incubated. The plates were washed again and binding of the antibodies to the immobilised peptides was visualised (FIGS. 8 and 9).

[2] = molecular target: T2, Peptide 2 (amino acid position 18-46 of …); assay: as above
Method: as §1

[3] = molecular target: T3, human CCR6; assay: flow cytometry, hybridoma culture supernatant on L1.2/hCCR6 transfectants
[4] = molecular target: T4, hCXCR1; assay: flow cytometry, hybridoma culture supernatant on L1.2/hCXCR1 transfectants
[5] = molecular target: T5, hCXCR2; assay: flow cytometry, hybridoma culture supernatant on L1.2/hCXCR2 transfectants
[6] = molecular target: T6, hCXCR3; assay: flow cytometry, hybridoma culture supernatant on L1.2/hCXCR3 transfectants
[7] = molecular target: T3, human CCR6; assay: competition with 125I-MIP-3α for L1.2/hCCR6 transfectants, partially purified mAb
Method: For ligand binding analysis, recombinant human CCL20 (MIP3α) (“ligand”) was obtained from Peprotech (New Jersey, USA). […] Cells were washed once in binding buffer (50 mM Hepes, pH 7.5, 1 mM CaCl, 5 mM MgCb, 0.5% BSA) and resuspended in binding buffer at a concentration of 2.5×10^6 cells/ml. Cold Purified monoclonal antibody or diluted hybridoma culture medium (cold competitor) was added to a 96-well plate followed by an equal volume (40 μl) binding buffer containing 1×10^5 cells. Cells and competitor were preincubated at room temperature for 15 min. Then radiolabeled ligand (final concentration 0.5-2 nM) was added to each well to give a final reaction volume of 120 μl. After a 60-min incubation at room temperature, the cells were washed three times with 1 ml of binding buffer containing 150 mM NaCl. The radioactivity (amount of bound label) in the cell pellets was counted in a TopCount liquid scintillation counter (Packard). Non-specific background binding was calculated by incubating cells […]. Samples were assayed in duplicate.
After incubation and washing the amount of label bound to cells was measured and the percentage inhibition determined by comparison to a control reaction with no added antibody (FIGS. 1 and 5).

| Binder | binding result [1] | binding result [2] | binding result [3] | binding result [4] | binding result [5] | binding result [6] | IC50 (read off the curve) [7] | binding result [7] |
| --- | --- | --- | --- | --- | --- | --- | --- | --- |
| B1 | binds | binds | – | – | – | – | – | – |
| B2 | binds | – | binds | no binding (tested: not given (culture supernatant)) | no binding (tested: not given (culture supernatant)) | no binding (tested: not given (culture supernatant)) | – | – |
| B3 | binds | – | – | no binding (tested: not given (culture supernatant)) | no binding (tested: not given (culture supernatant)) | no binding (tested: not given (culture supernatant)) | ~7 nM | – |
| B4 | binds | – | – | – | – | – | – | binds |
| B5 | – | – | – | – | – | – | – | binds |
| B6 | – | – | binds | no binding (tested: not given (culture supernatant)) | no binding (tested: not given (culture supernatant)) | no binding (tested: not given (culture supernatant)) | – | – |
| B7 | binds | – | – | – | – | – | – | binds |
